Experiment [1] concerns the target prefusion stabilised SARS-CoV spike ectodomain trimer, residues 1-1160, two proline substitutions, T (SARS-CoV). In words: ELISA, 47D11 titrated on coated spike ectodomain.
For experiment [2] the target is unchanged. In words: ELISA: spike ectodomain coated on the plate, 47D11 titrated, OD450nm.

This is an account of results in patent US20210340225A1.

Turning to “47D11 fully human IgG1 monoclonal antibody”, the concentration giving a half-maximal response (EC50 (read off the curve)) in experiment [1] and in experiment [2] was 0.2 nM throughout.

By EC50 (read off the curve) is commonly meant the concentration giving half of the maximal effect. A high value points to weaker potency.
